This is an account of results in the supplement of paper PMC10567573.

B1: ATL3 (parent)
chain: FSFRYQQELEEEIKELYENFCKHN
B2: PDLIM4 (parent)
chain: FLDERLYCESHAKARVKPPEGYDV
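Also: lentivirally expressed fusions sorted by FACS into six bins by GFP to DsRed ratio, PSI derived from sequencing read proportions per bin multiplied by bin number.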

One data set covers variants of B1. Nature of the data set: protein stability index of a GFP-peptide fusion (GPS, HEK-293T) (PSI 1-6); higher = more stable. Particulars: c terminus: a fixed tail appended.
Regarding FSFRYQQELEEEIKELYENFCKHH [N24H], the protein stability index was determined as 2.64.

With FSFRYQQELEEEIKELYENFCKHL [N24L], the protein stability index was determined as 2.64.

On to FSFRYQQELEEEIKELYENFCKHR [N24R], for which the protein stability index worked out at 2.42.

For FSFRYQQELEEEIKELYENFCKHW [N24W], the protein stability index was found to be 2.12.

FSFRYQQELEEEIKELYENFCKHI [N24I]: the protein stability index amounted to 2.82.

As for FSFRYQQELEEEIKELYENFCKHA [N24A], the protein stability index turned out to be 2.37.

For the variant FSFRYQQELEEEIKELYENFCKHY [N24Y], the protein stability index was found to be 2.61.

With FSFRYQQELEEEIKELYENFCKHC [N24C], the protein stability index stood at 2.77.

On to FSFRYQQELEEEIKELYENFCKHE [N24E], for which the protein stability index worked out at 1.93.

Regarding FSFRYQQELEEEIKELYENFCKHT [N24T], the protein stability index amounted to 3.13.

For FSFRYQQELEEEIKELYENFCKHP [N24P], the protein stability index came out at 1.96.

On to FSFRYQQELEEEIKELYENFCKHS [N24S], for which the protein stability index was 2.14.

As for FSFRYQQELEEEIKELYENFCKHG [N24G], the protein stability index stood at 2.36.

Take FSFRYQQELEEEIKELYENFCKHD [N24D]: the protein stability index came out at 2.49.

For FSFRYQQELEEEIKELYENFCKHF [N24F], the protein stability index came out at 3.38.

As to FSFRYQQELEEEIKELYENFCKHM [N24M], the protein stability index worked out at 2.49.

On to FSFRYQQELEEEIKELYENFCKHK [N24K], for which the protein stability index was determined as 2.48.

FSFRYQQELEEEIKELYENFCKHV [N24V]: the protein stability index turned out to be 3.5.

On to FSFRYQQELEEEIKELYENFCKTN [H23T], for which the protein stability index came to 3.04.

As for FSFRYQQELEEEIKELYENFCKYN [H23Y], the protein stability index turned out to be 2.49.

For FSFRYQQELEEEIKELYENFCKQN [H23Q], the protein stability index is 2.75.

In the case of FSFRYQQELEEEIKELYENFCKSN [H23S], the protein stability index was 2.1.

Regarding FSFRYQQELEEEIKELYENFCKWN [H23W], the protein stability index was 2.14.

Regarding FSFRYQQELEEEIKELYENFCKRN [H23R], the protein stability index stood at 1.86.

The variants in a further data set derive from B2. The description is as above. Particulars: c terminus: a fixed tail appended.
On to FLEERLYCESHAKARVKPPEGYDV [D3E], for which the protein stability index turned out to be 1.94.

In the case of FLMERLYCESHAKARVKPPEGYDV [D3M], the protein stability index worked out at 1.48.

With FLRERLYCESHAKARVKPPEGYDV [D3R], the protein stability index stood at 2.32.

Turning to FLHERLYCESHAKARVKPPEGYDV [D3H], the protein stability index was 2.39.

Take FLLERLYCESHAKARVKPPEGYDV [D3L]: the protein stability index is 2.27.

As to FLIERLYCESHAKARVKPPEGYDV [D3I], the protein stability index was found to be 1.94.

For the variant FLQERLYCESHAKARVKPPEGYDV [D3Q], the protein stability index was found to be 1.53.

With FLCERLYCESHAKARVKPPEGYDV [D3C], the protein stability index turned out to be 3.79.

With FLGERLYCESHAKARVKPPEGYDV [D3G], the protein stability index was 1.92.

For the variant FLTERLYCESHAKARVKPPEGYDV [D3T], the protein stability index worked out at 1.31.

As to FLPERLYCESHAKARVKPPEGYDV [D3P], the protein stability index was found to be 2.64.

FLFERLYCESHAKARVKPPEGYDV [D3F]: the protein stability index turned out to be 2.66.

Take FLSERLYCESHAKARVKPPEGYDV [D3S]: the protein stability index was 1.03.

For the variant FLAERLYCESHAKARVKPPEGYDV [D3A], the protein stability index was found to be 2.14.

As to FLNERLYCESHAKARVKPPEGYDV [D3N], the protein stability index is 1.21.

As for FLKERLYCESHAKARVKPPEGYDV [D3K], the protein stability index came to 2.49.

With FLVERLYCESHAKARVKPPEGYDV [D3V], the protein stability index worked out at 2.5.

Take FADERLYCESHAKARVKPPEGYDV [L2A]: the protein stability index worked out at 1.81.

With FGDERLYCESHAKARVKPPEGYDV [L2G], the protein stability index was 3.4.

Consider FSDERLYCESHAKARVKPPEGYDV [L2S], for which the protein stability index is 3.37.

On to FWDERLYCESHAKARVKPPEGYDV [L2W], for which the protein stability index stood at 2.47.

Consider FHDERLYCESHAKARVKPPEGYDV [L2H], for which the protein stability index is 2.24.

As for FCDERLYCESHAKARVKPPEGYDV [L2C], the protein stability index was found to be 1.96.

For FRDERLYCESHAKARVKPPEGYDV [L2R], the protein stability index was 2.96.

For FVDERLYCESHAKARVKPPEGYDV [L2V], the protein stability index was 2.42.

For FKDERLYCESHAKARVKPPEGYDV [L2K], the protein stability index was 3.99.

Regarding FPDERLYCESHAKARVKPPEGYDV [L2P], the protein stability index stood at 2.98.

FQDERLYCESHAKARVKPPEGYDV [L2Q]: the protein stability index came out at 2.12.

Regarding FMDERLYCESHAKARVKPPEGYDV [L2M], the protein stability index amounted to 1.67.

Consider FNDERLYCESHAKARVKPPEGYDV [L2N], for which the protein stability index is 3.48.

As to FDDERLYCESHAKARVKPPEGYDV [L2D], the protein stability index was determined as 4.28.

FIDERLYCESHAKARVKPPEGYDV [L2I]: the protein stability index amounted to 1.38.

Take FFDERLYCESHAKARVKPPEGYDV [L2F]: the protein stability index was found to be 3.46.

In the case of FYDERLYCESHAKARVKPPEGYDV [L2Y], the protein stability index is 3.53.

Take FTDERLYCESHAKARVKPPEGYDV [L2T]: the protein stability index is 2.54.

For FLDELLYCESHAKARVKPPEGYDV [R5L], the protein stability index was determined as 1.98.

Consider FLDEDLYCESHAKARVKPPEGYDV [R5D], for which the protein stability index is 2.11.

With FLDEILYCESHAKARVKPPEGYDV [R5I], the protein stability index came to 2.24.

On to FLDENLYCESHAKARVKPPEGYDV [R5N], for which the protein stability index turned out to be 1.49.

Take FLDEMLYCESHAKARVKPPEGYDV [R5M]: the protein stability index came to 2.33.

Regarding FLDEFLYCESHAKARVKPPEGYDV [R5F], the protein stability index is 1.52.

With FLDEELYCESHAKARVKPPEGYDV [R5E], the protein stability index worked out at 2.42.

On to FLDEKLYCESHAKARVKPPEGYDV [R5K], for which the protein stability index came to 1.66.

For the variant FLDEGLYCESHAKARVKPPEGYDV [R5G], the protein stability index is 2.47.

Consider FLDEALYCESHAKARVKPPEGYDV [R5A], for which the protein stability index is 1.86.

As to MLDERLYCESHAKARVKPPEGYDV [F1M], the protein stability index stood at 4.29.

As to WLDERLYCESHAKARVKPPEGYDV [F1W], the protein stability index is 2.5.

Take SLDERLYCESHAKARVKPPEGYDV [F1S]: the protein stability index came out at 4.63.

In the case of CLDERLYCESHAKARVKPPEGYDV [F1C], the protein stability index was 3.43.

With ILDERLYCESHAKARVKPPEGYDV [F1I], the protein stability index is 4.27.

With DLDERLYCESHAKARVKPPEGYDV [F1D], the protein stability index turned out to be 4.34.

Regarding PLDERLYCESHAKARVKPPEGYDV [F1P], the protein stability index amounted to 5.

For VLDERLYCESHAKARVKPPEGYDV [F1V], the protein stability index was 3.92.

Regarding NLDERLYCESHAKARVKPPEGYDV [F1N], the protein stability index turned out to be 4.21.

For the variant KLDERLYCESHAKARVKPPEGYDV [F1K], the protein stability index turned out to be 4.43.

On to TLDERLYCESHAKARVKPPEGYDV [F1T], for which the protein stability index was 4.72.

In the case of ELDERLYCESHAKARVKPPEGYDV [F1E], the protein stability index was determined as 4.68.

Consider ALDERLYCESHAKARVKPPEGYDV [F1A], for which the protein stability index is 4.23.

In the case of LLDERLYCESHAKARVKPPEGYDV [F1L], the protein stability index turned out to be 3.89.

Consider QLDERLYCESHAKARVKPPEGYDV [F1Q], for which the protein stability index worked out at 4.58.

Consider RLDERLYCESHAKARVKPPEGYDV [F1R], for which the protein stability index worked out at 4.28.

As to HLDERLYCESHAKARVKPPEGYDV [F1H], the protein stability index came out at 4.26.

YLDERLYCESHAKARVKPPEGYDV [F1Y]: the protein stability index stood at 1.3.

Regarding FLDRRLYCESHAKARVKPPEGYDV [E4R], the protein stability index is 3.33.

FLDLRLYCESHAKARVKPPEGYDV [E4L]: the protein stability index turned out to be 2.34.

As to FLDYRLYCESHAKARVKPPEGYDV [E4Y], the protein stability index was found to be 2.02.

On to FLDDRLYCESHAKARVKPPEGYDV [E4D], for which the protein stability index was 1.71.

Regarding FLDCRLYCESHAKARVKPPEGYDV [E4C], the protein stability index stood at 3.33.

Take FLDVRLYCESHAKARVKPPEGYDV [E4V]: the protein stability index turned out to be 2.06.

Consider FLDSRLYCESHAKARVKPPEGYDV [E4S], for which the protein stability index was 5.15.
